Reference: the nanobody polyreactivity screen of Harvey et al. (2022)

Assay: yeast display, Sf9 membrane polyspecificity reagent, FACS + sequencing; frameworks hold sequencing errors
Outline: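 Galactose-induced (36–48 hours) yeast carrying a synthetic nanobody display library were exposed to 10% biotinylated, detergent-solubilized Sf9 membrane reagent at 4 °C for 1 hour. FACS followed streptavidin microbead enrichment, using low and high (top ~1%) gates for expression (anti-HA) and reagent binding (streptavidin). Colony PCR, MiSeq 2 × 250 sequencing and CDR-length filtering followed. Labels for polyreactivity reflect the gate of origin.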

Row | Sequence | polyreactivity (PSR sort gate)
1 | QVQLVESGGGLVQAGGSLRLSCAASGLTFVVYAMGWYRQATGKERELVASITSSGGRTYYADSVKGRFTISRDNAKNTVYLQMTSLKPEDTAVYYCAAVRRRTRYGYRYDYWGQGTQVTVSS | high polyreactivity
2 | QVQLVESGGGLVQAGGSLRLSCAASGLTFVYNAMGWYRQAPGKERELVATISRGGSTYYADSVKGRFTISLDNAMNTVYLQMTSLKPEDTAVYYCNDDGYYDYDYGYWGQGTQVTVSS | low polyreactivity
3 | QVQLVESGGGLVQAGGSLRLSCAASGLTFVYYAMGWYRQAPGKERELVAAISRSGGATYYADSVKGRFTISRDNAKNTVYLQMNSLKPEDTAVYYCAADATKWIGVVTMDYWGQGTQVTVAS | high polyreactivity
4 | QVQLVESGGGLVQAGGSLRLSCAASGLTFVYYAMGWYRQAPGKERELVASISSTGRTYYADSVKGRFTISRDNAKNTVYLQMNSLKPEDTAVYFSAARSTYFKADYWGQGTQVTVSS | high polyreactivity
5 | QVQLVESGGGLVQAGGSLRLSCAASGLTFVYYAMGWYRQAPGKERELVAVISSSGGSTYYADSVKGRFTISRDNAKNTVYLQMNSLKPEDTAVYYCAAPRQVYYQTDNDYWGQGTLVTVSS | high polyreactivity
6 | QVQLVESGGGLVQAGGSLRLSCAASGLTFWHYAMGWYRQAHGKERELVAAISSGGRTYYADSVKGRFTISRDNAKNTVYLKMNSLKPEDSAVYYCAARGPQYYVYGYDYWGQGTQVTVSS | high polyreactivity
7 | QVQLVESGGGLVQAGGSLRLSCAASGLTFWNNAMGWYRQAPGKERELVARINNGDNTYYADSVKGRFTISRDNAKNTVYLQMNSLKPEDTAVYYCAAKRYSNIPWIHDISTFYYWGQGTQVTVSS | low polyreactivity
8 | QVQLVESGGGLVQAGGSLRLSCAASGLTFWYYAMGWYRQAPGKERELVAAITISGGSTYYADSVKGRFTISRDNAKNTVYLQMNRLQPEDTAVYYCAKTFSYTGRYWGYDYWGKGTQVTVSS | high polyreactivity
9 | QVQLVESGGGLVQAGGSLRLSCAASGLTFYANAMGWYRQAPGKERELVATISVGTDSTNYADSVKGRFTISRDNAKYTVYLQMNRLKPEDTAVYYCNALYEEYYAQDPYDYWGQGTQVTVSS | high polyreactivity
10 | QVQLVESGGGLVQAGGSLRLSCAASGLTFYGYGMGWYRQAPGKERELVASITSGGNTYYADSVKGRFTISRDNAKNTVYLRMNSLKPEDTAVYYCAVTAIALYYSSGYYWGQGTQVTVSS | low polyreactivity
11 | QVQLVESGGGLVQAGGSLRLSCAASGLTFYHYAMGWYRQAPGKERELVADISSGGSTSYADSVKGRFTISRDNAKNTVYLQMNSLKPEDTAVFYCAADYTWERYHRQIFRLDYWGQGTQVTVSS | low polyreactivity
12 | QVQLVESGGGLVQAGGSLRLSCAASGLTFYLYAMGWYRQAPGKERELVAAISSSGSSTYYADSVKGRFTISRDNAKHTVYLQMNSLKPEDTAVYYCAAVASRGWGRYGYWGQGTQVTVSS | high polyreactivity
13 | QVQLVESGGGLVQAGGSLRLSCAASGLTFYLYAMGWYRQAPGKERELVAAITTSGGSTYYADSVKGRFTISRDNAKNTVYLQMNSLKPEDTAVYDCATQGAIRGYGYWGQGTQVTVSS | high polyreactivity
14 | QVQLVESGGGLVQAGGSLRLSCAASGLTFYQYAMGWYRQAPGKERELVAAISKSAGSTYYADSVKGRFTISRDNAKNTVYLQMNSLKPEDTAVYYCNAARPFTRVPRQTWKMGYWGQGTQVTVSS | high polyreactivity
15 | QVQLVESGGGLVQAGGSLRLSCAASGLTFYRYAMGWYRQAPGKERELVAAISFSGGSTYYADSVKGRFTISRDNAKNTVYLQMNSLKPEDTAVYYCAKVDTPGSQRYITPEEGPEYDYWGQGTQVTVSS | high polyreactivity
16 | QVQLVESGGGLVQAGGSLRLSCAASGLTFYRYAMGWYRQAPGKERELVAAISSSGGSTYYADSVKGRFTISRDNAKNTVYLQMNSLKPEDTAVYYCAAKRVSVPYGYWGQGTQVTVSS | high polyreactivity

Row | Sequence | polyreactivity (PSR sort gate)
17 | QVQLVESGGGLVQAGGSLRLSCAASGLTFYSYAMGWSRQAPGKERELVAAITSSGSITYYADSVKGRFTISRDNAKNTVYLQMNSLKPEDTAVYYCAARPYRVRGQRFEGNYWGQGTQVTVSS | high polyreactivity
18 | QVQLVESGGGLVQAGGSLRLSCAASGLTFYSYAMGWYRQAPGKERELVAAITWSGGGTYYADSVKGRFTISRDNAKNTVYLQMNSLKPEDTAVYYCAALSYNGVRYYYWGQGTQVTVSS | high polyreactivity
19 | QVQLVESGGGLVQAGGSLRLSCAASGLTFYSYAMGWYRQAPGKERELVAAITWSGGGTYYADSVKGRFTISRDNAKNTVYLQMNSLKPVDTADYYCAADYWGYDIYYGLTERESWGQGTQVTVSS | high polyreactivity
20 | QVQLVESGGGLVQAGGSLRLSCAASGLTFYTYAMGWYIQAPGTERELVAAISSGGSTNYADSVKGRFTISRDNAKNTVYLQMNSLKPEDTAVYYCAADPSYYTYFSFDLSESDYWGQGTQVTVSS | low polyreactivity
21 | QVQLVESGGGLVQAGGSLRLSCAASGLTFYTYAMGWYRQAPGKERELVAAISTNGGSTYYADSVKGRFTISRDNAKNTVYLQMNSLKPEDTAVYYCAKEGGTYRIFNYWGQGTQVTVSS | low polyreactivity
22 | QVQLVESGGGLVQAGGSLRLSCAASGLTFYTYPMGWYRQAPGKERELVAAISSGGSTNYADSVKGRFTISRDNAKNTVYLQMNSLTPEDTAVYYCAADPSYFTYFSFDLSESDYWGKGTQVTVSS | low polyreactivity
23 | QVQLVESGGGLVQAGGSLRLSCAASGLTFYVYAMGWYRQAPGKERELVAAISSGGRTYYADSVKGRFTISRDNAKNTVYLQMNSLKPEDTAVYYCAAVRHRNYGYWGQGTQVTVSS | high polyreactivity
24 | QVQLVESGGGLVQAGGSLRLSCAASGLTFYYYAMGWYRQAPGKERELVAAISRSGGSTYYADSVKGRFTISRDNAKNTVYLQMNSLKPEDTAVYYCAAYGPASVYEVAMDYWGQGTQVTVSS | high polyreactivity
25 | QVQLVESGGGLVQAGGSLRLSCAASGLTFYYYTMGWYRQAPGKERELVAAITSGGSTYYADSVKGRFTISRDNAKNTVYLQMNSLKPEDTAVYDCAAVPSRYGRYRYYYWGQGTQVTVSS | high polyreactivity
26 | QVQLVESGGGLVQAGGSLRLSCAASGLTIITNAMGWYRQAPGKERELVAAISGTGGSTYYADSVKGRFTISRDNAKNTVYLQMNSLKPEDTAVYYCAAAPYTFWVGDSWGQGTQVTVSS | high polyreactivity
27 | QVQLVESGGGLVQAGGSLRLSCAASGLTILDNAMGWYRQAPGKERELVATISGGGSTYYADSVKGRFTISRDNAKNTVYLQMNSLKPEDTAVYYWNAAYVGGPWWYRYTYNYWGQGTQVTVSS | low polyreactivity
28 | QVQLVESGGGLVQAGGSLRLSCAASGLTIRYYAMGWYRQAPGKERELVAAITRGGSTYYADSVKGRFTISRDNAKNTVYLQMNSLKPDDTAVYYCAAYDVRYNTYDYDYWGQGTQVTVSS | high polyreactivity
29 | QVQLVESGGGLVQAGGSLRLSCAASGLTIWRYAMGWYRQAPGKEREFVATISQNGGRTYYADSVKGRFTISRDNAKNTVYLQMQSLKPEDTAVYYCAADDWRWGYDYWGQGTQVTVSS | high polyreactivity
30 | QVQLVESGGGLVQAGGSLRLSCAASGLTLAWYAMGGYRQAPGKERELVAAISWSGDSTYYADSVKGRFTISRDNAKNTVYLQMNSLKPEDTAVYYCATRVYGGYGYWGQGTQVTVSS | high polyreactivity
31 | QVQLVESGGGLVQAGGSLRLSCAASGLTLRRYAMGWYRQAPGKEREMVASINSGTSTKYADSVKGRFTISRDNAKNTVYLQMNSLKPEDTAVYYCGAAGYFPTAGSRRAYYYWGQGTQVSVSS | high polyreactivity
